According to patent US20140087995A1 (published 2014):
Numbered stars: 1 amine (or outer) side, 2 acyl side, 3 side chain; on linkers, the order of the positions; unused ones are H or OH. Bridge positions count the residues as written; N and C are the ends. Side chains are listed from the residue outwards. Ends that are not written are not given here. * marks the point of attachment. C20 diacid = O=C(O)CCCCCCCCCCCCCCCCCCC(=O)*; C18 diacid = O=C(O)CCCCCCCCCCCCCCCCC(=O)*; C16 diacid = O=C(O)CCCCCCCCCCCCCCC(=O)*; γGlu = O=C(O)[C@H](CCC(=O)[*:2])N[*:1]; C14 diacid = O=C(O)CCCCCCCCCCCCC(=O)*

Key:
[1] = target: T1, human amylin 3(a) receptor (human calcitonin receptor co-expressed with RAMP-3) (human, UniProt P30988 25-474; O60896 24-148, limits assumed); experiment: cell-based or functional assay
T1 sequence (looked up) 1: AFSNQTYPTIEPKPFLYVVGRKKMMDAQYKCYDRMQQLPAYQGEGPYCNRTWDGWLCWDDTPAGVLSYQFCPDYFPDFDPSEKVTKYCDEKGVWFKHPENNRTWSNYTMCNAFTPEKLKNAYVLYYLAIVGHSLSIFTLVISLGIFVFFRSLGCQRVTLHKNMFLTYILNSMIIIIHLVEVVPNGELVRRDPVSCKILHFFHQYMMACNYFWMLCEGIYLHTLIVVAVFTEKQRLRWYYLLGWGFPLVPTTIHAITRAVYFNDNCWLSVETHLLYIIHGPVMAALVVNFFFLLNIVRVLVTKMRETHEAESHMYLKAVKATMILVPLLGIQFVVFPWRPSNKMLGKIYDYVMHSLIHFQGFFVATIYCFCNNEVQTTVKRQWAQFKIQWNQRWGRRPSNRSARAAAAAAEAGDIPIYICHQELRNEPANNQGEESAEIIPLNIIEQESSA
T1 sequence (looked up) 2: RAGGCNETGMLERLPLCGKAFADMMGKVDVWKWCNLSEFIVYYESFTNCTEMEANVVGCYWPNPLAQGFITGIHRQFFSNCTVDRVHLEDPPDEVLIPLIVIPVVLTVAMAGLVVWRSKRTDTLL

[2] = target: T2, human calcitonin receptor (human, UniProt P30988 25-474); experiment: cell-based or functional assay
T2 sequence (looked up): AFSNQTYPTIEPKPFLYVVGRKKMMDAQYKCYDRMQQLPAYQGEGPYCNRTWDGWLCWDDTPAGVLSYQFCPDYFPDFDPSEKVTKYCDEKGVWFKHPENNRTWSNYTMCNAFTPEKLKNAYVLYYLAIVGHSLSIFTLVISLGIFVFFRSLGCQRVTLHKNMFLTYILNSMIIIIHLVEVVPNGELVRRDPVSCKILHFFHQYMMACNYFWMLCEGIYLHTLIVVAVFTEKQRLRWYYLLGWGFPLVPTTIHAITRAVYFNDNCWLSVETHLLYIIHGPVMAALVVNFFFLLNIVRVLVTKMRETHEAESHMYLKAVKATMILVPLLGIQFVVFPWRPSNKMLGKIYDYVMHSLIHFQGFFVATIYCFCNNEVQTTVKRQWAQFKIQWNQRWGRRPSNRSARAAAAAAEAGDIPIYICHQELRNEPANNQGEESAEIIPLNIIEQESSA

| Binder | Ratio hCT/hAmylin funct. [1] | Ratio hCT/hAmylin funct. [2] |
| --- | --- | --- |
| {C20 diacid-γGlu}-KCNTATCATQRLAEFLRHSSPNFGPILPPTNVGSNTP-NH2 (disulfide 2-7; SMILES CC[C@H](C)[C@H](NC(=O)[C@@H]1CCCN1C(=O)CNC(=O)[C@H](Cc1ccccc1)NC(=O)[C@H](CC(N)=O)NC(=O)[C@@H]1CCCN1C(=O)[C@H](CO)NC(=O)[C@H](CO)NC(=O)[C@H](Cc1c[nH]cn1)NC(=O)[C@H](CCCNC(=N)N)NC(=O)[C@H](CC(C)C)NC(=O)[C@H](Cc1ccccc1)NC(=O)[C@H](CCC(=O)O)NC(=O)[C@H](C)NC(=O)[C@H](CC(C)C)NC(=O)[C@H](CCCNC(=N)N)NC(=O)[C@H](CCC(N)=O)NC(=O)[C@@H](NC(=O)[C@H](C)NC(=O)[C@@H]1CSSC[C@H](NC(=O)[C@H](CCCCN)NC(=O)CC[C@H](NC(=O)CCCCCCCCCCCCCCCCCCC(=O)O)C(=O)O)C(=O)N[C@@H](CC(N)=O)C(=O)N[C@@H]([C@@H](C)O)C(=O)N[C@@H](C)C(=O)N[C@@H]([C@@H](C)O)C(=O)N1)[C@@H](C)O)C(=O)N[C@@H](CC(C)C)C(=O)N1CCC[C@H]1C(=O)N1CCC[C@H]1C(=O)N[C@H](C(=O)N[C@@H](CC(N)=O)C(=O)N[C@H](C(=O)NCC(=O)N[C@@H](CO)C(=O)N[C@@H](CC(N)=O)C(=O)N[C@H](C(=O)N1CCC[C@H]1C(N)=O)[C@@H](C)O)C(C)C)[C@@H](C)O, also called compound 4) | 1.2 |  |
| K([γGlu-C14 diacid])CNTATCATQRLANFLRHSSPNFGAIPSSTNVGHNTY-NH2 (disulfide 2-7 (inferred)) [N^ε1-[(4S)-4-carboxy-4-(13-carboxytridecanoylamino)butanoyl]-[Arg17,Pro21,Pro27,His34]-h-amylin] |  | 38.8 |
| K([γGlu-C16 diacid])CNTATCATQRLANFLRHSSPNFGAIPSSTNVGHNTY-NH2 (disulfide 2-7 (inferred)) [N^ε1-[(4S)-4-carboxy-4-(15-carboxypentadecanoylamino)butanoyl]-[Arg17,Pro21,Pro27,His34]-h-amylin] |  | 65.1 |
| K([γGlu-C18 diacid])CNTATCATQRLANFLRHSSPNFGAIPSSTNVGHNTY-NH2 (disulfide 2-7 (inferred)) [N^ε1-[(4S)-4-carboxy-4-(17-carboxyheptadecanoylamino)butanoyl]-[Arg17,Pro21,Pro27,His34]-h-amylin] |  | 60.9 |
| K([γGlu-C20 diacid])CNTATCATQRLADFLRHSSPNFGAIPSSTNVGPRTY-NH2 (disulfide 2-7 (inferred)) |  | 24.9 |
| {C20 diacid-γGlu}-KCNTATCATQRLAEFLRHSSPNFGAIPSSTNVGSNTP-NH2 (disulfide 2-7 (inferred), also called compound 8) | 1.1 |  |
| {C20 diacid-γGlu}-KCNTATCATQRLAEFLRHSSPNFGAIPSSTNVGSDTP-NH2 (disulfide 2-7 (inferred), also called compound 11) | 0.9 |  |
| {C20 diacid-γGlu}-KCNTATCATQRLAEFLRHSSPNFGAPLSSTNVGSNTP-NH2 (disulfide 2-7 (inferred), also called compound 5) | 1 |  |
| {C20 diacid-γGlu}-KCNTATCATQRLADFLRHSSPNFGAIPSSTNVGSNTP-NH2 (disulfide 2-7; SMILES CC[C@H](C)[C@H](NC(=O)[C@H](C)NC(=O)CNC(=O)[C@H](Cc1ccccc1)NC(=O)[C@H](CC(N)=O)NC(=O)[C@@H]1CCCN1C(=O)[C@H](CO)NC(=O)[C@H](CO)NC(=O)[C@H](Cc1c[nH]cn1)NC(=O)[C@H](CCCNC(=N)N)NC(=O)[C@H](CC(C)C)NC(=O)[C@H](Cc1ccccc1)NC(=O)[C@H](CC(=O)O)NC(=O)[C@H](C)NC(=O)[C@H](CC(C)C)NC(=O)[C@H](CCCNC(=N)N)NC(=O)[C@H](CCC(N)=O)NC(=O)[C@@H](NC(=O)[C@H](C)NC(=O)[C@@H]1CSSC[C@H](NC(=O)[C@H](CCCCN)NC(=O)CC[C@H](NC(=O)CCCCCCCCCCCCCCCCCCC(=O)O)C(=O)O)C(=O)N[C@@H](CC(N)=O)C(=O)N[C@@H]([C@@H](C)O)C(=O)N[C@@H](C)C(=O)N[C@@H]([C@@H](C)O)C(=O)N1)[C@@H](C)O)C(=O)N1CCC[C@H]1C(=O)N[C@@H](CO)C(=O)N[C@@H](CO)C(=O)N[C@H](C(=O)N[C@@H](CC(N)=O)C(=O)N[C@H](C(=O)NCC(=O)N[C@@H](CO)C(=O)N[C@@H](CC(N)=O)C(=O)N[C@H](C(=O)N1CCC[C@H]1C(N)=O)[C@@H](C)O)C(C)C)[C@@H](C)O, also called compound 10) | 1 |  |

Now from value to binder:

| Ratio hCT/hAmylin funct. [1] | Ratio hCT/hAmylin funct. [2] | Binder |
| --- | --- | --- |
|  | 16.4 | K([γGlu-γGlu-C20 diacid])CNTATCATQRLAEFLRHSSPNFGAIPSSTNVGPHTY-NH2 (disulfide 2-7 (inferred)) |
|  | 17 | K([γGlu-C20 diacid])CNTATCATQRLAEFLRHSSPNFGAIPSSTNVGPRTY-NH2 (disulfide 2-7 (inferred)) |
|  | 15.8 | K([γGlu-γGlu-C20 diacid])CNTATCATQRLAEFLRHSSPNFGAIPSSTNVGHETY-NH2 (disulfide 2-7 (inferred)) |
|  | 29.3 | K([γGlu-γGlu-C20 diacid])CNTATCATQRLAEFLRHSSPNFGAIPSSTNVGPRTY-NH2 (disulfide 2-7 (inferred), also called compound 110) |
|  | 26 | K([γGlu-γGlu-C20 diacid])CNTATCATQRLANFLRHSSPNFGAIPSSTPVGPRTY-NH2 (disulfide 2-7 (inferred)) |
|  | 28 | K([γGlu-γGlu-C20 diacid])CNTATCATQRLAHFLRHSSPNFGAIPSSTNVGSNTY-NH2 (disulfide 2-7 (inferred), also called compound 92) |
|  | 44.9 | K([γGlu-γGlu-C20 diacid])CNTATCATQRLADFLRHSSPNFGAIPSSTNVGPRTY-NH2 (disulfide 2-7 (inferred), also called compound 130) |
| 2.2 |  | {C20 diacid-γGlu}-KCNTATCATQRLAEFLRHSSPNFGAILPSTNVGSETY-NH2 (disulfide 2-7 (inferred), also called compound 33) |
| 3.8 |  | {C20 diacid-γGlu}-KCNTATCATQRLAEFLRHSSPNFGAIPSSTNVGSETY-NH2 (disulfide 2-7 (inferred), also called compound 22) |
|  | 17.3 | K([γGlu-γGlu-C20 diacid])CNTATCATQRLAEFLRHSSNNPGAILSSTNVGPETY-NH2 (disulfide 2-7 (inferred)) |
